How the values were obtained:
TNFα [1] = target: T1, TNFα (human, UniProt P01375 77-233); experiment: SPR (Biacore), antibody captured on Protein A, TNFα as analyte, single cycle kinetics, 1:1 model, 25 °C
T1 construct: also called human TNFα
Method: Affinity to TNFα was measured by Biacore. A CM5 chip was prepared using standard amine immobilisation Biacore procedures. Upon insertion of a CM5 chip the system was primed and then normalised with BIA-normalising solution (Biacore Preventative Maintenance Kit 2). The chip was added to the system with Phosphate Buffered Saline Tween-20 (PBS-T) running buffer; prior to immobilisation the chip surface was primed with three injections of 50 mM NaOH. Protein A was immobilised on the chip surface. For this, the protein was diluted to 5 μg/mL into 10 mM acetate buffer at pH 4.5 and injected so to generate a bound response of ˜1000 RU's in all 4 flow cells. To remove non-covalently bound material from all the chip flow cells, three 15 second 50 mM NaOH washes were performed. On the Protein A chip, antibody was captured in flow cells 2 and 4, with flow cells 1 and 3 used for reference subtraction. The trial antibodies were diluted in PBS-T to 10 nM and 2.5-7.5 uL injected to obtain 120 RU of captured antibody. […] For each single cycle analysis cycle a titration of 5 analyte concentrations were injected over the ligand and then the dissociation of the complex was measured. The surface was regenerated using glycine pH 1.7. A double referencing method was employed in which data from the ligand bound capture surface (fc 2 and 4) were subtracted from the references surfaces where no ligand was captured (fc 1 and 3 respectively). Blank injections of buffer were run every 3-4 cycles and then subtracted from analyte injection cycles, to correct for small changes in the ligand capture surface. Repeat injections of analyte at the start and end of each analytical run were used to check for sample degradation, or changes in the instrument performance. All analysis was performed at 25° C. and the sample rack was incubated at 10° C. during experimental runs. Each experiment was run at least three times. A 1-to-1 binding model was used to fit the resulting kinetic data.

[2] = target: T2, monomeric His-tagged human FcRn (human, UniProt P55899 24-297; P61769 21-119); experiment: SPR (Biacore 3000), antibody amine-coupled, monomeric His-tagged hFcRn as analyte, pH 6.0, 1:1 Langmuir model, 25 °C; pH 6.0
T2 construct: The b2m chain is an addition from general knowledge; also called hFcRn; neonatal Fc receptor
Method: (§1) SPR was performed using a Biacore 3000 instrument with CM5 sensor chips coupled with anti-TNFα IgG1 antibodies (˜500 resonance units (RU)) using amine-coupling chemistry as described by the manufacturer. The coupling was performed by injecting 2.0 ug/mL of each protein in 10 mM sodium acetate, pH 4.5, using the amine-coupling kit (GE Healthcare). […] All SPR experiments were conducted at 25° C. with a flow rate of 40 ul/min. Binding data were zero-adjusted, and reference cell value subtracted. The Langmuir 1:1 ligand binding model provided by the BlAevaluation software (version 4.1) was used to determine the binding kinetics.

[3] = target: T2, monomeric His-tagged human FcRn; experiment: SPR, pH 6.0, KD against that of infliximab; pH 6.0; KD ratio to IFX
Method: as §1

CD16b(NA2) = target: T3, CD16b(NA2) (UniProt O75015 17-200, limits assumed); experiment: SPR (Biacore), His-tagged FcγR captured on anti-His chip, antibody as analyte, single cycle kinetics, 25 °C
T3 construct: Captured on an anti-His tag chip, so it carried a His tag
T3 sequence (O75015 17-200 N65S limits assumed): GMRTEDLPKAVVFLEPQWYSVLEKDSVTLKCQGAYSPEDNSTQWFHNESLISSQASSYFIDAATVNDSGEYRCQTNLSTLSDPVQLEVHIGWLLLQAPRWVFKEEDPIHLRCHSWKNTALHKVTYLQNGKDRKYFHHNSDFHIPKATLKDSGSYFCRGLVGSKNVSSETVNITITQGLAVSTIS
Method: (§2) Affinity to FcγRs was measured by Biacore. A CM5 chip was prepared using standard amine immobilisation Biacore procedures. Upon insertion of a CM5 chip the system was primed and then normalised with BIA-normalizing solution (Biacore Preventative Maintenance Kit 2). The chip was added to the system with PBS-T running buffer; prior to immobilisation the chip surface was primed with three injections of 50 mM NaOH. FcγRs were immobilised on the chip surface using a His-tag capture system. The anti-His tag chip was prepared according to the Biacore kit instructions, with ˜12000 RU's of the antibody deposited on all 4 flow cells. To remove non-covalently bound material from all the chip flow cells, three 30 second 10 mM glycine pH 1.5 washes were performed. The Fcγ receptors were diluted in PBS-T to a range of 0.5-2 μg/mL, with 2.5-5.0 μL injected onto the chip generating capture levels between 60 and 200 RU's. Antibodies were diluted into PBS-T prior to analysis. Single cycle kinetics were used to estimate the steady state affinity. For each single cycle analysis cycle a titration of 5 antibody concentrations were injected over the FcγR ligand and then the dissociation of the complex was measured. The surface was regenerated using the recommended solution, 10 mM glycine pH 1.5 for the anti-His capture surface. A double referencing method was employed in which data from the ligand bound capture surface (fc 2 and 4) were subtracted from the references surfaces where no ligand was captured (fc 1 and 3 respectively). Blank injections of buffer were run for every antibody titration cycle and then subtracted from analyte injection cycles, to correct for small changes in the ligand capture surface. All analysis was performed at 25° C. and the sample rack was incubated at 10° C. during experimental runs. Each experiment was run at least three times.

CD16a(V) = target: T4, CD16a(V) (UniProt P08637 17-208); experiment: as above
T4 construct: Captured on an anti-His tag chip, so it carried a His tag; also called Fcγ receptor CD16a(V)
T4 sequence (P08637 17-208 F176V limits assumed): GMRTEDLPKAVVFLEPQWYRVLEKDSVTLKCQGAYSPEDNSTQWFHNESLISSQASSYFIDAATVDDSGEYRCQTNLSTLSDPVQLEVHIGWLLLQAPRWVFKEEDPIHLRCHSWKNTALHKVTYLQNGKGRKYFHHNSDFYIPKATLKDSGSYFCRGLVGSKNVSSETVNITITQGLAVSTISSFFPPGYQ
Method: as §2

CD16a(F) = target: T5, CD16a(F) (UniProt P08637 17-208); experiment: as above
T5 construct: Captured on an anti-His tag chip, so it carried a His tag
T5 sequence (P08637 17-208 limits assumed): as the sequence (P08637 17-208 F176V limits assumed) above, with V160F counted along it
Method: as §2

TNFα [4] = target: T1, TNFα; experiment: cell-based or functional assay
[5] = target: T2, monomeric His-tagged human FcRn; experiment: SPR, pH 6.0, KD against that of Ab-wt; pH 6.0; KD ratio to Ab-wt
Method: as §1

T1 sequence (P01375 77-233 limits assumed): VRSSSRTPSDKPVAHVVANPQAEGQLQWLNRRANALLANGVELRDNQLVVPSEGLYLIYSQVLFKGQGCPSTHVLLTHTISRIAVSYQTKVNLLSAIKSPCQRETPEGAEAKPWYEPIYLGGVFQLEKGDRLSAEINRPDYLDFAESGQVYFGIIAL

Binder	Kd (TNFα [1]) [nM]	koff (TNFα [1]) [s⁻¹]	kon (TNFα [1]) [M⁻¹ s⁻¹]	Kd [2] [nM]	Fold change from IFX [3] [fold]	Kd (CD16b(NA2)) [nM]	Kd (CD16a(V)) [nM]	Kd (CD16a(F)) [nM]	IC50 (read off the curve), L929 TNFα neutralisation [upper panel] (TNFα [4]) [ng/mL]	Fold change from wt [5] [fold]	IC50 (read off the curve), L929 TNFα neutralisation [lower panel] (TNFα [4]) [ng/mL]
Ab-A-DLE-PVAΔG (antibody, human IgG1, kappa) heavy: EVQLVESGGGLVQPGGSLRLSCKASGIDFNNYGIGWVRQAPGKGLEWITYIYPGFAITNFANSVKGRFTISSDNSKNTVYLQMNSLRAEDTAVYYCARDPVYATSSGYFDLWGQGTLVTVSSASTKGPSVFPLAPSSKSTSGGTAALGCLVKDYFPEPVTVSWNSGALTSGVHTFPAVLQSSGLYSLSSVVTVPSSSLGTQTYICNVNHKPSNTKVDKKVEPKSCDKTHTCPPCPAPPVAGPDVFLFPPKPKDTLMISRTPEVTCVVVDVSHEDPEVKFNWYVDGVEVHNAKTKPREEQYNSTYRVVSVLTVLHQDWLNGKEYKCKVSNKALPLPEEKTISKAKGQPREPQVYTLPPSREEMTKNQVSLTCLVKGFYPSDIAVEWESNGQPENNYKTTPPVLDSDGSFFLYSKLTVDKSRWQQGNVFSCSVMHEALHAHYTQKSLSLSPGK light: DIQMTQSPSSLSASVGDRVTIKCQASQSIFSGLAWYQQKPGKAPKLLIYGASKLASGVPSRFSGSGSGTEFTLTISGLQPADFATYYCQSYYYSSSSSDGSYAFGGGTKLTVLGRTVAAPSVFIFPPSDEQLKSGTASVVCLLNNFYPREAKVQWKVDNALQSGNSQESVTEQDSKDSTYSLSSTLTLSKADYEKHKVYACEVTHQGLSSPVTKSFNRGEC	0.00288	3.04e-05	1.13e+07	157	2.7	470	68.7	110	~7	6.4	
Ab-wt (antibody, human IgG1, kappa, Human IgG1 anti-TNFα antibody with a wild-type Fc region; also called parent antibody; wild-type antibody) heavy: not shown light: DIQMTQSPSSLSASVGDRVTIKCQASQSIFSGLAWYQQKPGKAPKLLIYGASKLASGVPSRFSGSGSGTEFTLTISGLQPADFATYYCQSYYYSSSSSDGSYAFGGGTKLTVLGRTVAAPSVFIFPPSDEQLKSGTASVVCLLNNFYPREAKVQWKVDNALQSGNSQESVTEQDSKDSTYSLSSTLTLSKADYEKHKVYACEVTHQGLSSPVTKSFNRGEC	0.00413	3.45e-05	8.37e+06	1000		> 3000	184				~7

Now those with a lower Kd (TNFα [1]), led by results:

Kd (TNFα [1]) [nM]	koff (TNFα [1]) [s⁻¹]	kon (TNFα [1]) [M⁻¹ s⁻¹]	Kd [2] [nM]	Fold change from IFX [3] [fold]	Kd (CD16b(NA2)) [nM]	Kd (CD16a(V)) [nM]	Kd (CD16a(F)) [nM]	IC50 (read off the curve), L929 TNFα neutralisation [upper panel] (TNFα [4]) [ng/mL]	Fold change from wt [5] [fold]	IC50 (read off the curve), L929 TNFα neutralisation [lower panel] (TNFα [4]) [ng/mL]	Binder
0.00251	2.19e-05	9.16e+06			5180	260				~9	Ab-A-AEA-PVAΔG (antibody, human IgG1, kappa) heavy: EVQLVESGGGLVQPGGSLRLSCKASGIDFNNYGIGWVRQAPGKGLEWITYIYPGFAITNFANSVKGRFTISSDNSKNTVYLQMNSLRAEDTAVYYCARDPVYATSSGYFDLWGQGTLVTVSSASTKGPSVFPLAPSSKSTSGGTAALGCLVKDYFPEPVTVSWNSGALTSGVHTFPAVLQSSGLYSLSSVVTVPSSSLGTQTYICNVNHKPSNTKVDKKVEPKSCDKTHTCPPCPAPPVAGPSVFLFPPKPKDTLMISRTPEVTCVVVDVSHEDPEVKFNWYVDGVEVHNAKTKPREEQYNSTYRVVSVLTVLHQDWLNGKEYKCKVSNAALPAPEAKTISKAKGQPREPQVYTLPPSREEMTKNQVSLTCLVKGFYPSDIAVEWESNGQPENNYKTTPPVLDSDGSFFLYSKLTVDKSRWQQGNVFSCSVMHEALHAHYTQKSLSLSPGK light: DIQMTQSPSSLSASVGDRVTIKCQASQSIFSGLAWYQQKPGKAPKLLIYGASKLASGVPSRFSGSGSGTEFTLTISGLQPADFATYYCQSYYYSSSSSDGSYAFGGGTKLTVLGRTVAAPSVFIFPPSDEQLKSGTASVVCLLNNFYPREAKVQWKVDNALQSGNSQESVTEQDSKDSTYSLSSTLTLSKADYEKHKVYACEVTHQGLSSPVTKSFNRGEC
0.00157	1.28e-05	8.14e+06	90	4.7	1030	117			11.1	~6	Ab-YTE-DLE-PVAΔG (antibody, human IgG1, kappa) heavy: EVQLVESGGGLVQPGGSLRLSCKASGIDFNNYGIGWVRQAPGKGLEWITYIYPGFAITNFANSVKGRFTISSDNSKNTVYLQMNSLRAEDTAVYYCARDPVYATSSGYFDLWGQGTLVTVSSASTKGPSVFPLAPSSKSTSGGTAALGCLVKDYFPEPVTVSWNSGALTSGVHTFPAVLQSSGLYSLSSVVTVPSSSLGTQTYICNVNHKPSNTKVDKKVEPKSCDKTHTCPPCPAPPVAGPDVFLFPPKPKDTLYITREPEVTCVVVDVSHEDPEVKFNWYVDGVEVHNAKTKPREEQYNSTYRVVSVLTVLHQDWLNGKEYKCKVSNKALPLPEEKTISKAKGQPREPQVYTLPPSREEMTKNQVSLTCLVKGFYPSDIAVEWESNGQPENNYKTTPPVLDSDGSFFLYSKLTVDKSRWQQGNVFSCSVMHEALHNHYTQKSLSLSPGK light: DIQMTQSPSSLSASVGDRVTIKCQASQSIFSGLAWYQQKPGKAPKLLIYGASKLASGVPSRFSGSGSGTEFTLTISGLQPADFATYYCQSYYYSSSSSDGSYAFGGGTKLTVLGRTVAAPSVFIFPPSDEQLKSGTASVVCLLNNFYPREAKVQWKVDNALQSGNSQESVTEQDSKDSTYSLSSTLTLSKADYEKHKVYACEVTHQGLSSPVTKSFNRGEC

Reference: patent US20230295288A1 (TILLOTTS PHARMA, published 2023)
